The source of these data is a protein production outcome set (Wang et al. 2014).

This data set can be described thus: label from the status in PepcDB records.
“MAERAMSVTPYWELTFDADGDVDGRERDRLLAQVAQRKVHDLVVFAHGWNNERSGATRLYSRFFQPVPALAPRARLGYVGVVWPSMIFPDEPIPDFPASVPAEVTAVARPALAKGARQALVEVFPDRATLVEQIARLLERHPDEEASLETFGQLVRLLVEARPQDPQDACAADTLATGGPVSGPEMLSGDTALVCRDFARALDRVASLHGTSAASGAVDFSFTPAGLWDGAHELLRQATYYAMKRRAGTVGERGLGRVLGRLAQAAPDVRVHLVGHSFGGRLVSFALRGLPAGVRTVKSVTLLQGAFSHYAFAARLPHDTHASGALHGLQSRIDGPLVCCYSHFDSALGTMYPLASRMAGDARSAAGELGADFDIGRTLGPRWGAMGHDGVQAVDGTRAFTLAEALRAELPASGCVNVDAAAVVKRGGPPTGAHSDIVHRELAQVVLAAGRIR”: the protein production result was “failed”.

Regarding “MPMGSLQPLATLYLLGMLVASCLGRLSWYDPDFQARLTRSNSKCQGQLEVYLKDGWHMVCSQSWGRSSKQWEDPSQASKVCQRLNCGVPLSLGPFLVTYTPQSSIICYGQLGSFSNCSHSRNDMCHSLGLTCLEPQKTTPPTTRPPPTTTPEPTAPPRLQLVAQSGGQHCAGVVEFYSGSLGGTISYEAQDKTQDLENFLCNNLQCGSFLKHLPETEAGRAQDPGEPREHQPLPIQWKIQNSSCTSLEHCFRKIKPQKSGRVLALLCSGFQPKVQSRLVGGSSICEGTVEVRQGAQWAALCDSSSARSSLRWEEVCREQQCGSVNSYRVLDAGDPTSRGLFCPHQKLSQCHELWERNSYCKKVFVTCQDPNPAGLAAGTVASIILALVLLVVLLVVCGPLAYKKLVKKFRQKKQRQWIGPTGMNQNMSFHRNHTATVRSHAENPTASHVDNEYSQPPRNSRLSAYPALEGVLHRSSMQPDNSSDSDYDLHGAQRL”, the protein production result is given as “failed”.

Take “MSRTLVLFDIDGTLLKVESMNRRVLADALIEVYGTEGSTGSHDFSGKMDGAIIYEVLSNVGLERAEIADKFDKAKETYIALFRERARREDITLLEGVRELLDALSSRSDVLLGLLTGNFEASGRHKLKLPGIDHYFPFGAFADDALDRNELPHIALERARRMTGANYSPSQIVIIGDTEHDIRCARELDARSIAVATGNFTMEELARHKPGTLFKNFAETDEVLASILTPKHS”: the protein production result is on record as “not failed”.

On to “MKLYKLLILDIDGTLRDEVYGIPESAKHAIRLCQKNHCSVVICTGRSMGTIQDDVLSLGVDGYIAGGGNYIQYHGELLYNQSFNQRLIKEVVCLLKKREVAFSIESQEKVFMNQKAKEIFETMNQLKGTNSCINKQHIQEKITYENNIEEYKSQDIHKICLWSNEKVFDEVKDILQDKMELAQRDISSQYYEIIQKDFHKGKAIKRLQERLGVTQKETICFGDGQNDIVMFQASDVTIAMKNSHQQLKDIATSICEDIFDNGIYKELKRRNII”, for which the protein production result is recorded as “not failed”.

In the case of “MAETVGMILCGGFGKRLRPLTEKIPKPLIEIKEGYTILDKQLFDLKNAGINTVYLLTGFLGERIEERYGDNYKGLRIEYVREEKPLGTLNAIRLGMEAIDGEKQCIIRNGDVVADLNIKKMIHLGEMSDYPLTMFITRMQSPYGIVETSGDKIINFREKPLLDYYINAGVYFSKGNLDFGDFESGDIEKTLFPLMAKENKLGYYREDGLFWMAIDTSKELEEIRKEYRNREDKPWGYEKILINTEKYLTKELFIREGYRTSFHYHEEKDETMYIISGSGYIEFDNRKEYFSKNDTIRIEPGERHSIVAMENTVLHEVSTPHLNDTVRVQDYYTRLEHHHHHH”, the protein production entry is on record as “not failed”.

With “MTTSIQRRISIVIPCLNDAVLLEQCLSSIVAQTLQPEEVIVVDNGSTDNSVEVANRMGARVVHEPLQGITWASAAGYNSARGDLIVRFDADCVIPPDHLSQVNAIWNRTEETPGRTIVALTGTGSFDIPGRMGEWLALCYLGAYRWSTKQALGHYPIFGSNSVISRQWWEDVKDQITLSETFVHEDMYFSFFVRPHETVWFEKNLKLIMHPRALMGVRQSFIRLVRGFYTIKIAWKREPVHQRLESRRDWTLEHHHHHH”, the protein production entry is reported as “failed”.

Consider “MATLSFGIAAAATTVRTIPRFNSRRSKITCEWDPKGVLGPAQTGHIARLEFKRRLERDSEAREAFQKQLREEKERRQALRQSRVVPDTAAELIEYFLDTEAQEIEYEIARLRGRLNDEFFAQIRLEIGQIRFAVTKTADIEDRLIELETLQKALEEGIEAYDKMQNELMTATNSLTKLLTSTDIKTTLLDMVEKNQINRSLLALLDENIANAYKGNQKEAGDYMEKIRSSVLKYLTV”, for which the protein production entry is “failed”.
